Measured values published in PMC3842936.

Legend:
[1] = target: native AdcAII of Streptococcus pneumoniae D39 (Streptococcus pneumoniae D39 (endogenous in D39 membranes)); assay: co-IP; S. pneumoniae D39 membranes solubilised in 2% Triton X-100, not cross-linked (IP); polyclonal antibody against AdcAII and protein A sepharose; 50 mM HEPES, 150 mM NaCl, pH 8, washes with 2% Triton X-100; immunoblot, signals quantified with Image J
[2] = target: native AdcAII of Streptococcus pneumoniae D39 (Streptococcus pneumoniae D39 (endogenous in D39 membranes)); assay: cross-linking + co-IP; S. pneumoniae D39 membrane preparations incubated with the thiol-cleavable cross-linker DTSSP (0.8 mM, 1 h) before the immuno-precipitation (x-IP); polyclonal antibody against AdcAII and protein A sepharose; immunoblot, signals quantified with Image J

## native PhtD (polyhistidine triad protein D) of Streptococcus pneumoniae D39 (natural protein)
[1]
  percentage of membrane-bound protein immuno-precipitated by AdcAII polyclonal antibodies: 1.7%
[2]
  percentage of membrane-bound protein immuno-precipitated by AdcAII polyclonal antibodies: 12%
